Test results published in the Human Domainome abundance scans (Beltran et al. 2025).
± gives the uncertainty stated by the source.

B1: Nanos homolog 2, residues 63 to 115; numbered along this chain, P60321 (parent)
chain: CNFCKHNGESRHVYSSHQLKTPDGVVVCPILRHYVCPVCGATGDQAHTLKYCP

Variants of: B1
Test: abundance fitness (aPCA) (normalised: wild type 0, dead -1); higher = more abundant; growth selection in yeast, the domain comes from the species named
Details: Homo sapiens

| Variant | abundance fitness |
| --- | --- |
| R11F | 0.07 ± 0.16 |
| R11I | 0.063 ± 0.12 |
| R11G | -0.084 ± 0.067 |
| R11T | 0.08 ± 0.13 |
| R11K | -0.317 ± 0.17 |
| R11M | -0.156 ± 0.12 |
| R11W | -0.408 ± 0.093 |
| R11S | -0.047 ± 0.1 |
| R11L | -0.049 ± 0.077 |
| R11P | 0.172 ± 0.16 |
| R11D | 0.167 ± 0.095 |
| R11H | -0.039 ± 0.19 |
| R11Q | -0.077 ± 0.18 |
| R11N | -0.131 ± 0.11 |
| R11C | -0.497 ± 0.19 |
| R11A | -0.034 ± 0.081 |
| R11V | -0.007 ± 0.091 |
| Q18S | -0.104 ± 0.082 |
| Q18V | 0.065 ± 0.056 |
| Q18G | -0.089 ± 0.068 |
| Q18T | -0.145 ± 0.13 |

| Variant | abundance fitness |
| --- | --- |
| Q18P | -0.183 ± 0.074 |
| Q18F | -0.079 ± 0.069 |
| Q18D | 0.101 ± 0.13 |
| Q18N | 0.097 ± 0.12 |
| Q18K | 0.133 ± 0.13 |
| Q18I | -0.259 ± 0.15 |
| Q18A | 0.056 ± 0.1 |
| Q18L | -0.033 ± 0.072 |
| Q18Y | -0.149 ± 0.14 |
| Q18H | 0.081 ± 0.17 |
| Q18M | 0.091 ± 0.11 |
| Q18R | -0.114 ± 0.073 |
| D23F | -0.371 ± 0.1 |
| D23Q | -0.061 ± 0.072 |
| D23N | -0.044 ± 0.096 |
| D23P | -0.378 ± 0.11 |
| D23Y | -0.119 ± 0.12 |
| D23C | -0.189 ± 0.072 |
| D23M | -0.234 ± 0.093 |
| D23S | -0.141 ± 0.084 |
| D23E | 0.076 ± 0.1 |

| Variant | abundance fitness |
| --- | --- |
| D23V | -0.22 ± 0.069 |
| D23I | -0.418 ± 0.13 |
| D23G | -0.132 ± 0.084 |
| D23R | -0.128 ± 0.071 |
| D23T | -0.211 ± 0.13 |
| D23H | -0.307 ± 0.21 |
| D23W | -0.306 ± 0.11 |
| D23L | -0.252 ± 0.088 |
| T21G | -0.004 ± 0.11 |
| G8C | -0.313 ± 0.097 |
| G8M | -0.137 ± 0.069 |
| G8T | -0.359 ± 0.1 |
| G8V | -0.306 ± 0.085 |
| G8L | -0.23 ± 0.065 |
| G8E | -0.119 ± 0.11 |
| G8K | -0.174 ± 0.13 |
| G8R | -0.063 ± 0.076 |
| G8Q | -0.084 ± 0.098 |
| G8N | -0.161 ± 0.11 |
| G8A | -0.196 ± 0.075 |
| G8W | -0.342 ± 0.12 |

| Variant | abundance fitness |
| --- | --- |
| G8S | -0.08 ± 0.077 |
| G8P | -0.343 ± 0.1 |
| G8F | -0.202 ± 0.12 |
| G8H | -0.092 ± 0.059 |
| G8D | -0.223 ± 0.096 |
| L19W | -0.089 ± 0.16 |
| L19S | -0.186 ± 0.15 |
| L19E | -0.013 ± 0.12 |
| L19R | -0.372 ± 0.082 |
| L19C | -0.093 ± 0.15 |
| L19G | -0.292 ± 0.1 |
| L19I | -0.149 ± 0.24 |
| L19P | -0.508 ± 0.15 |
| L19T | -0.041 ± 0.13 |
| L19N | -0.277 ± 0.42 |
| L19D | -0.172 ± 0.18 |
| L19M | -0.051 ± 0.12 |
| L19Q | -0.329 ± 0.22 |
| L19V | -0.113 ± 0.078 |
| H12P | -0.069 ± 0.14 |
| H12T | 0.035 ± 0.11 |
